The assay concerns the target Protein A (Staphylococcus aureus) (UniProt P38507). The assay is described as follows: ITC.

With “Nanoparticle-conjugated trastuzumab (CS-DOX-mAb) (antibody)”, the KA, first binding site amounted to 3.48e+06 M⁻¹; the N, first binding site came to 1.65; the dH, first binding site is -93.9 kcal/mol.
As usually defined, the stoichiometry N is the number of molecules, sites or subunits per partner or assembly. “Trastuzumab (Herceptin), free monoclonal antibody” showed a dH of -105 kcal/mol and a stoichiometry N of 2.78.

These data come from article PMC3181058.
